These results are taken from publication PMC11672532.

In the series the target is c-Met ((A549 lung cancer cells)) (UniProt P08581). Nature of the series: flow cytometry on cells. The settings on record: 5' and 3' cholesterol on ASO strand; Intact A549 or HeLa cells, FAM-labeled DNA, flow cytometry (30 min in Fig S8); binding buffer and temperature not given in the material. (In general: In flow cytometry, cells or beads pass a laser one at a time.)
c-Met ((A549 lung cancer cells)), sequence (P08581 25-1390): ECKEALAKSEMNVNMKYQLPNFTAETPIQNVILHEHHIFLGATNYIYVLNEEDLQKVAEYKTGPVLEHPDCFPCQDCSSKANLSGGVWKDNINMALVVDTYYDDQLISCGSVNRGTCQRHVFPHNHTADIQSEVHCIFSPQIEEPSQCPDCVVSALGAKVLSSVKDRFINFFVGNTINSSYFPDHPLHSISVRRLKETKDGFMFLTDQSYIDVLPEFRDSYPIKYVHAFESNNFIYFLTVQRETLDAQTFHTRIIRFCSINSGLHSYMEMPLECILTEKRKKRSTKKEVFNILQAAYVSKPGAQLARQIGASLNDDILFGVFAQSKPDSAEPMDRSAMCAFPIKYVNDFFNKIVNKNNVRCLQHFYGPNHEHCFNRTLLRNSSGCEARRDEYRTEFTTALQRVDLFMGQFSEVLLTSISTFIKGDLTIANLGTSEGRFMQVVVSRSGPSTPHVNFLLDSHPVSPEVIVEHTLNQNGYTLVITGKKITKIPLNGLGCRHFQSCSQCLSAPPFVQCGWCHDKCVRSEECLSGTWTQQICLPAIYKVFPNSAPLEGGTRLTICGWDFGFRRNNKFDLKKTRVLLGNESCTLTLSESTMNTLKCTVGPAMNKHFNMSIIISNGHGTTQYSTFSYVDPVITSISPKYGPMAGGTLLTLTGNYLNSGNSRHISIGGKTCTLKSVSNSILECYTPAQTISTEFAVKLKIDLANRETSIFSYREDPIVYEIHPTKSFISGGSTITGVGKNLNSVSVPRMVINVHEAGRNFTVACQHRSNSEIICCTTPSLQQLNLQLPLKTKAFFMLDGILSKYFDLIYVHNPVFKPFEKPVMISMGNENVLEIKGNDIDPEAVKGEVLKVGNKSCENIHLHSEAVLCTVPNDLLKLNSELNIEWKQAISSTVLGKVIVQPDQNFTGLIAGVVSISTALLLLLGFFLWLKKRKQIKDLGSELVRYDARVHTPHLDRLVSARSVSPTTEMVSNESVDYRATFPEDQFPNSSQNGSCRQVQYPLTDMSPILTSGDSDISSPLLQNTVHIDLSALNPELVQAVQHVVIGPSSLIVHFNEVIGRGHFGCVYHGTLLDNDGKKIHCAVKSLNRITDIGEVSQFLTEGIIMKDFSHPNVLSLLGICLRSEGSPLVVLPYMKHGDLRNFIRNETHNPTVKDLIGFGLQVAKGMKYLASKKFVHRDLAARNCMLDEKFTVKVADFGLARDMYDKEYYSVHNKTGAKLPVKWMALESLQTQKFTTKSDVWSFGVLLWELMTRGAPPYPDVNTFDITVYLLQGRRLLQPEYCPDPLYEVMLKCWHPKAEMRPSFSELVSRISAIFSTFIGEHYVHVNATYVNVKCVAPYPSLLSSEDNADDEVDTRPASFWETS

In turn, “TGGATGGTAGCTCGGTCGGGGTGGGTGGGTTGGCAAGTCT / GGTGTCACAGGCGGGACCCCCGACCGA / GTCCCGCCTGTGACACCTCCCGCCTGTGACATGCATTTTTTTTCCCGCCTGTGACATGCATTGTCCCGCCTGTGACACC / CAACCCACCCGGTGTCACAGGCGGGAC [NT-Ch2-Apt (DNA nanotweezer)]” returned a binding signal (fold (A549 / HeLa fluorescence)) of 2.5.
